Experiment [1] has as its target T1, HER3 on the plasma membrane of SK-BR-3 and BT-474 breast cancer cells (human, UniProt P21860 20-1342).
T1 construct: whole, on cells; also called cell surface HER3
Briefly: fluorescence microscopy of SK-BR-3 cells treated with 50 nM antibody for 15 min at 37 C and chased 45 min; detection with Alexa 555 anti-human IgG, co-stain LAMP-1; the cells carry HER2 and HER3 and the staining of the bispecific is not separated between the two. Here is the method: Cells were fixed, permeabilized and stained for LAMP-1. […] Scale bars=2 μm.
For fixation, cells were treated with 1.7% (w/v) paraformaldehyde for 10 minutes at 37° C. and then permeabilized with 0.05% (v/v) saponin for 10 minutes at room temperature in PBS. […] Cells were washed twice with PBS between each incubation step and were stored at 4° C. in 1% BSA/PBS.

Experiment [2] concerns the target T1, HER3 on the plasma membrane of SK-BR-3 …. Briefly: fluorescence microscopy of SK-BR-3 cells pulsed with 50 nM antibody for 5 min at 37 C and chased 0, 10 or 20 min; detection with Alexa 555 anti-human IgG, co-stain EEA-1 [Continued].

B1: bispecific trastuzumab with anti-HER3 Ab6 scFv (TAb6) (bispecific antibody)
heavy: not shown
light: DIELTQSPSSLSASVGDRVTITCRASQDVNTAVAWYQQKPGKAPKLLIYSASFLYSGVPSRFSGSRSGTDFTLTISSLQPEDFATYYCQQHYTTPPTFGQGTKLEIKRTVAAPSVFIFPPSDEQLKSGTASVVCLLNNFYPREAKVQWKVDNALQSGNSQESVTEQDSKDSTYSLSSTLTLSKADYEKHKVYACEVTHQGLSSPVTKSFNRGEC
notes: Morrison format, expressed in CHO cells; also called bispecific anti-HER2/HER3 antibody
As for B1, the binding result in experiment [1] was “binds”.

B2: tetrameric anti-HER3 (Ab6tet) (antibody)
heavy: not shown
light: DIELTQPASVSGSPGQSITISCTGTSSDVGSYNVVSWYQQHPGKAPKLIIYEVSQRPSGVSNRFSGSKSGNTASLTISGLQTEDEADYYCCSYAGSSIFVIFGGGTKLEIKRTVAAPSVFIFPPSDEQLKSGTASVVCLLNNFYPREAKVQWKVDNALQSGNSQESVTEQDSKDSTYSLSSTLTLSKADYEKHKVYACEVTHQGLSSPVTKSFNRGEC
notes: Residues 1-19 are the leader; also called tetravalent anti-HER3 antibody; multivalent anti-HER3 antibody
For the molecule B2, in experiment [2], the binding result is given as “binds”.

Values taken from patent US20160229920A1 (University of Texas, published 2016).
